{"source": "patent US20260258125A1", "about": "(NONA BIOSCIENCES SUZHOU, published 2026)", "binders": {"B1": {"name": "PR304294 (antibody, human IgG1, kappa, V domains shown)", "VH": "EVQLLESGGGLVQPGGSLRLSCAASGFTFSSYAMSWVRQAPGKGLEWVSAISGTTYNTYYAGSVKGRFTISRDNSKNTLYLQMNSLRAEDTAVYYCAKGISVAGYYYYGMDVWGQGTTVTVSS", "VL": "EIVMTQSPATLSVSPGERATLSCRASQSVISNLAWYQQKPGQAPRLLIYGASTRATGIPARFSGSGSGTEFTLTISSLQSEDFAVYYCHQYNNWPLTFGGGTKVEIKR", "notes": "Recombinant full antibody"}, "B2": {"name": "PR304171 (antibody, human IgG1, kappa, V domains shown)", "VH": "not shown", "VL": "B1 VL with S28N, Y36H, G50T, A51T, H89Q", "notes": "Recombinant full antibody"}}, "key": {"human CEACAM8 protein [1]": {"molecular_target": "T1, human CEACAM8 protein (human, UniProt P31997 35-320)", "T1 construct": "Bought protein; also called huCEACAM8", "T1 sequence (looked up)": "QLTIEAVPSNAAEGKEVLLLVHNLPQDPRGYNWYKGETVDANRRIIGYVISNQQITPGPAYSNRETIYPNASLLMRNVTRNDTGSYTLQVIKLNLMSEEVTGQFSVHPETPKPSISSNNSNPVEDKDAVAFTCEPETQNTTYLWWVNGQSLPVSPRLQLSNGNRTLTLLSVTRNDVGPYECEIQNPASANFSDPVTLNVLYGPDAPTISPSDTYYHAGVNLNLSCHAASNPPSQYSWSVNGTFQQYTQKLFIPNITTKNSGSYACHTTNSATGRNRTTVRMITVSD", "experiment": "ELISA, human CEACAM8 protein coated on the plate, anti-human Fc-HRP, OD450", "excerpt": "(§1) Binding of recombinant anti-CEACAM5/6 dual-binding monoclonal antibodies against human and cynomolgus CEACAM5, and human CEACAM6 (Uniprot P40199), human CEACAM 1, 3 (NP_001806.2, Sino Biological 11933-H08H) and 8 (NP_001807.2, Acro Bio CE8-H5224) were detected by ELISA. Anti-CEACAM5/6 dual-antibodies were serially diluted in staining buffer (PBS containing 2% FBS). […] ELISA was used to test the binding between antibody containing supernatant or purified antibodies and the antigen. Briefly, the antigens were coated on a 96-well high binding plate overnight at 4° C. The plate was washed with PBST three times, incubated with blocking buffer (2% Bovine Serum Albumin) for one hour at 37° C., washed with PBST three times and incubated with antibody containing supernatant or purified antibodies at desired dilutions or concentrations for one hour at 37° C. A secondary antibody, anti-human Fc-HRP (Jackson Laboratory, 109-035-097) was used for detection of the targeted antibody. TMB and stopping solution were used for detection of HRP signal. The HRP signal was read on a SPECTRAMAX plate reader."}, "[2]": {"molecular_target": "T2, recombinant CEACAM5-his protein, biotinylated (UniProt P06731 35-685, limits assumed, biotinylated (sites not given))", "T2 construct": "not shown: His tag", "T2 sequence (looked up)": "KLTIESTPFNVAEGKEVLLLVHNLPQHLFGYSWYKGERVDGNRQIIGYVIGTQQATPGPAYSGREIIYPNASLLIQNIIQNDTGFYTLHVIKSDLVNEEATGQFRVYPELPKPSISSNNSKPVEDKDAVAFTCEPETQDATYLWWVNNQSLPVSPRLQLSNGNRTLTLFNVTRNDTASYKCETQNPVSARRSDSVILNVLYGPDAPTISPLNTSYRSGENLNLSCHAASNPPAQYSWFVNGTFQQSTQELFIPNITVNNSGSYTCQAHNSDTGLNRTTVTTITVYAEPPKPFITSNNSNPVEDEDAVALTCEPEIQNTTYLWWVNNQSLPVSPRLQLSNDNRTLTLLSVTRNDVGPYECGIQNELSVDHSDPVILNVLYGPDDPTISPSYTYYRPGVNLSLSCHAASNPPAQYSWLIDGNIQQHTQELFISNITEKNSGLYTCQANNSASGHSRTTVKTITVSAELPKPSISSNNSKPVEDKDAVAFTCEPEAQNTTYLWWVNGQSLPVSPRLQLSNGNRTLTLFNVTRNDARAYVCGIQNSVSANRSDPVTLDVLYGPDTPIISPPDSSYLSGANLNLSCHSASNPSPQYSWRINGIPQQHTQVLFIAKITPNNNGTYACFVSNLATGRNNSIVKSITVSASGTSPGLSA", "experiment": "Octet epitope binning on biotinylated CEACAM5-his; competitor PR304294", "protocol": "In epitope binning analysis using Octet, antibodies were tested against other antibodies in a pairwise fashion to see if antibodies block one another's binding to the epitope of the antigen. The first and second antibodies was diluted into same concentration which could saturate the binding of immobilized antigens. Recombinant CEACAM5-his protein was biotinylationed and was then used as antigen and immobilized to SA sensor. The first antibody was associated with antigen and then followed by the second antibody. Data were analyzed by ForteBio Data Analysis Software (version 8.0, Pall ForteBio). The rate of RU values of the same antibody as 2nd antibody to as 1st antibody was calculated as the co-binding rate of this antibody to other antibodies."}, "[3]": {"molecular_target": "T3, human CEACAM5 on 293T cells (293T-huCEACAM5 cells) (human, UniProt P06731 35-685)", "T3 construct": "whole, on cells", "T3 sequence (looked up)": "T2 sequence (looked up)", "experiment": "flow cytometry on 293T-huCEACAM5 cells", "protocol": "(§2) Binding of recombinant anti-CEACAM5/6 dual-binding antibodies against human or cynomolgus CEACAM5 or CEACAM6 stable cells were detected by flow cytometry. […] Anti-CEACAM5/6 dual-binding antibodies were incubated with the stable cell lines. Anti-CEACAM5/6 dual-binding antibodies were serially diluted in staining buffer (PBS containing 2% FBS). 50 μL of diluted antibody solution was added to 50 μL of cell suspension containing 1-2×10⁵ cells and incubated at 4° C. for 1 hour. […] After 1-hour incubation at 4° C., cells were washed twice and run on a flow cytometer. […] The results were shown in FIGS. 8-10 and Tables 6 below."}, "[4]": {"molecular_target": "T4, human CEACAM6 on 293T cells (293T-huCEACAM6 cells) (human, UniProt P40199 35-320)", "T4 construct": "whole, on cells", "T4 sequence (looked up)": "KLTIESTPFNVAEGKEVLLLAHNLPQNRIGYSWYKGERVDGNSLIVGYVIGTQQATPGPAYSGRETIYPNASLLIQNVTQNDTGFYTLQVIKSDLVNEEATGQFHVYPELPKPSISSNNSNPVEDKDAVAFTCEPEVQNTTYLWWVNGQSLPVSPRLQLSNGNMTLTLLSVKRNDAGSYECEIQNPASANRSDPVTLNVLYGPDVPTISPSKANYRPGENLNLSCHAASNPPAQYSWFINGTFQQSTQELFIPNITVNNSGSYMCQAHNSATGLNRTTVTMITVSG", "experiment": "flow cytometry on 293T-huCEACAM6 cells", "protocol": "as §2"}, "human CEACAM3 protein": {"molecular_target": "T5, human CEACAM3 protein (human, UniProt P40198 35-155)", "T5 construct": "Bought protein; also called huCEACAM3", "T5 sequence (looked up)": "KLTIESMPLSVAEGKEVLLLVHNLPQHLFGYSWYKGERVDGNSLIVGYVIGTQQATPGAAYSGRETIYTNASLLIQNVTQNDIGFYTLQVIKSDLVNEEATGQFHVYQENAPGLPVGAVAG", "experiment": "ELISA, antigen coated on plate", "excerpt": "as §1"}, "human CEACAM8 protein [5]": {"molecular_target": "T1, human CEACAM8 protein", "experiment": "ELISA, antigen coated on plate", "excerpt": "as §1"}}, "note": "Numbering of substitutions follows the chain as printed.", "data": [{"binder": "B1", "values": [{"measurement": "binding result", "setting": "human CEACAM8 protein [1]", "value": "no binding (tested: 10 nM)"}, {"measurement": "co-binding rate", "setting": "[2]", "value": 1.8, "unit": "%"}, {"measurement": "EC50", "setting": "[3]", "value": 1.26, "unit": "nM"}, {"measurement": "EC50", "setting": "[4]", "value": 1.32, "unit": "nM"}]}, {"binder": "B2", "values": [{"measurement": "co-binding rate", "setting": "[2]", "value": 24.4, "unit": "%"}, {"measurement": "binding result", "setting": "human CEACAM3 protein", "value": "no binding"}, {"measurement": "binding result", "setting": "human CEACAM8 protein [5]", "value": "no binding"}, {"measurement": "EC50", "setting": "[3]", "value": 3.64, "unit": "nM"}, {"measurement": "EC50", "setting": "[4]", "value": 10.6, "unit": "nM"}]}]}
